How the values were obtained:
Experiment in all cases: DTNB spectrophotometric CoA release (A412)
Type in all cases: biochemical, Phaeodactylum tricornutum
[1] = substrate: CCCCCCCCCCCCCC(=O)SCCNC(=O)CCNC(=O)[C@H](O)C(C)(C)COP(=O)(O)OP(=O)(O)OC[C@H]1O[C@@H](n2cnc3c(N)ncnc32)[C@H](O)[C@@H]1OP(=O)(O)O; details: 10 mM HEPES pH 7.5, 50 mM KCl, 0.3 mM DTNB, room temperature in methods (37 °C in Fig. 1 legend)
Source text: (§1) DTNB spectrophotometric CoA release (A412) on ptTES1

[2] = substrate: CCCCCCCCCCCCCCCC(=O)SCCNC(=O)CCNC(=O)[C@H](O)C(C)(C)COP(=O)(O)OP(=O)(O)OC[C@H]1O[C@@H](n2cnc3c(N)ncnc32)[C@H](O)[C@@H]1OP(=O)(O)O; details: 10 mM HEPES pH 7.5, 50 mM KCl, 0.3 mM DTNB, room temperature in methods (37 °C in Fig. 1 legend), substrate inhibition above 60 μM
Source text: as §1

[3] = substrate: CCCCCCCCCCCCCCCCCC(=O)SCCNC(=O)CCNC(=O)[C@H](O)C(C)(C)COP(=O)(O)OP(=O)(O)OC[C@H]1O[C@@H](n2cnc3c(N)ncnc32)[C@H](O)[C@@H]1OP(=O)(O)O; details: 10 mM HEPES pH 7.5, 50 mM KCl, 0.3 mM DTNB, room temperature in methods (37 °C in Fig. 1 legend)
Source text: as §1

[4] = substrate: CC/C=C\C/C=C\C/C=C\C/C=C\C/C=C\CCCC(=O)SCCNC(=O)CCNC(=O)[C@H](O)C(C)(C)COP(=O)(O)OP(=O)(O)OC[C@H]1O[C@@H](n2cnc3c(N)ncnc32)[C@H](O)[C@@H]1OP(=O)(O)O; details: 10 mM HEPES pH 7.5, 50 mM KCl, 0.3 mM DTNB, room temperature in methods (37 °C in Fig. 1 legend)
Source text: as §1

[5] = substrate: CC(C)(COP(=O)(O)OP(=O)(O)OC[C@H]1O[C@@H](n2cnc3c(N)ncnc32)[C@H](O)[C@@H]1OP(=O)(O)O)[C@@H](O)C(=O)NCCC(=O)NCCSC(=O)CC(=O)O; details: 10 mM HEPES pH 7.5, 50 mM KCl, 0.3 mM DTNB, room temperature in methods (37 °C in Fig. 1 legend)
Source text: as §1

[6] = substrate: CCCCCCCC/C=C\CCCCCCCC(=O)SCCNC(=O)CCNC(=O)[C@H](O)C(C)(C)COP(=O)(O)OP(=O)(O)OC[C@H]1O[C@@H](n2cnc3c(N)ncnc32)[C@H](O)[C@@H]1OP(=O)(O)O; details: 10 mM HEPES pH 7.5, 50 mM KCl, 0.3 mM DTNB, room temperature in methods (37 °C in Fig. 1 legend), substrate inhibition above 60 μM
Source text: as §1

[7] = substrate: CCCCCCCCCC(=O)SCCNC(=O)CCNC(=O)[C@H](O)C(C)(C)COP(=O)(O)OP(=O)(O)OC[C@H]1O[C@@H](n2cnc3c(N)ncnc32)[C@H](O)[C@@H]1OP(=O)(O)O; details: 10 mM HEPES pH 7.5, 50 mM KCl, 0.3 mM DTNB, room temperature in methods (37 °C in Fig. 1 legend)
Source text: as §1

B1: ptTES1 (Phaeodactylum tricornutum CCAP 1055/1) (protein)
chain: MGLIHTPRTIVSIAKGLWKRRQGTVDWPGLGPDKPYVYNARLGLFDVDYLGHLNNAAYLSHAELARWELTAANGMLTSMLQSGTNFIVSGSCIRYRQEIRPVFRKFQVDTYVAGLDQRTIWMVQNFRYPGQNERIRAQMIVQGVAVQKTKGIIDPRSFFVDTVGMPSDLIESVNLPITSDDTVEDVLERYSFLEKALRRAATVDDELQKKEANKE
notes: codon-optimized synthetic gene in pET28a, His6-tagged, E. coli Rosetta (DE3), Ni-NTA purified, about 25 kDa on SDS-PAGE; tag removal not mentioned
[1]
  Km: 21.79 µM
  Vmax: 0.0302 µmol/min/mg
  kcat: 0.0131 s⁻¹
  kcat/Km: 602 M⁻¹ s⁻¹
[2]
  Km: 14.76 µM
  Vmax: 0.0453 µmol/min/mg
  kcat: 0.0196 s⁻¹
  kcat/Km: 1330 M⁻¹ s⁻¹
[3]
  Km: 8.246 µM
  Vmax: 0.0451 µmol/min/mg
  kcat: 0.0196 s⁻¹
  kcat/Km: 2370 M⁻¹ s⁻¹
[4]
  Km: 38.61 µM
  Vmax: 0.0164 µmol/min/mg
  kcat: 0.0071 s⁻¹
  kcat/Km: 184 M⁻¹ s⁻¹
[5]
  Km: 14.64 µM
  Vmax: 0.00205 µmol/min/mg
  kcat: 0.0009 s⁻¹
  kcat/Km: 60.7 M⁻¹ s⁻¹
[6]
  Km: 12.37 µM
  Vmax: 0.0508 µmol/min/mg
  kcat: 0.022 s⁻¹
  kcat/Km: 1780 M⁻¹ s⁻¹
[7]
  Km: 91.76 µM
  Vmax: 0.0228 µmol/min/mg
  kcat: 0.0099 s⁻¹
  kcat/Km: 108 M⁻¹ s⁻¹

— paper PMC6231261, “Enhanced triacylglycerol production in the diatom Phaeodactylum tricornutum by inactivation of a Hotdog-fold thioesterase gene using TALEN-based targeted mutagenesis” (Biotechnology for Biofuels, 2018)
